Residue numbers refer to the chain shown, from its start. Names may count otherwise.

B1: KaiA (S. elongatus) (natural protein, UniProt Q79PF6 1-284, looked up)
chain: MLSQIAICIWVESTAILQDCQRALSADRYQLQVCESGEMLLEYAQTHRDQIDCLILVAANPSFRAVVQQLCFEGVVVPAIVVGDRDSEDPDEPAKEQLYHSAELHLGIHQLEQLPYQVDAALAEFLRLAPVETMADHIMLMGANHDPELSSQQRDLAQRLQERLGYLGVYYKRDPDRFLRNLPAYESQKLHQAMQTSYREIVLSYFSPNSNLNQSIDNFVNMAFFADVPVTKVVEIHMELMDEFAKKLRVEGRSEDILLDYRLTLIDVIAHLCEMYRRSIPRET
notes: KaiA, Synechococcus elongatus; also called KaiA dimer; wt KaiA; source: E. coli BL21, GST fusion, purified
B2: wild type KaiC (S. elongatus) (natural protein, UniProt Q79PF4 1-519, looked up)
chain: MTSAEMTSPNNNSEHQAIAKMRTMIEGFDDISHGGLPIGRSTLVSGTSGTGKTLFSIQFLYNGIIEFDEPGVFVTFEETPQDIIKNARSFGWDLAKLVDEGKLFILDASPDPEGQEVVGGFDLSALIERINYAIQKYRARRVSIDSVTSVFQQYDASSVVRRELFRLVARLKQIGATTVMTTERIEEYGPIARYGVEEFVSDNVVILRNVLEGERRRRTLEILKLRGTSHMKGEYPFTITDHGINIFPLGAMRLTQRSSNVRVSSGVVRLDEMCGGGFFKDSIILATGATGTGKTLLVSRFVENACANKERAILFAYEESRAQLLRNAYSWGMDFEEMERQNLLKIVCAYPESAGLEDHLQIIKSEINDFKPARIAIDSLSALARGVSNNAFRQFVIGVTGYAKQEEITGLFTNTSDQFMGAHSITDSHISTITDTIILLQYVEIRGEMSRAINVFKMRGSWHDKAIREFMISDKGPDIKDSFRNFERIISGSPTRITVDEKSELSRIVRGVQEKGPES
notes: KaiC, Synechococcus elongatus; C-terminal residue S519; Its phosphorylation state varies in the cycling reaction; also called wt-KaiC; TST; source: E. coli BL21, purified
B3: KaiC T432A/S431A double mutant (natural protein, S. elongatus, UniProt Q79PF4 1-519, looked up)
chain: B2 chain with S431A, T432A
notes: KaiC, Synechococcus elongatus, with S431A and T432A; the tag is therefore uncertain; also called KaiC-aa; S431A/T432A
B4: KaiC T432E/S431E double mutant (natural protein, S. elongatus, UniProt Q79PF4 1-519, looked up)
chain: B2 chain with S431E, T432E
modifications: phosphoserine at 320 (in the A and F subunits of the crystal structure)
notes: KaiC, Synechococcus elongatus, with S431E and T432E; the tag is therefore uncertain; also called KaiC-ee; S431E/T432E
B5: SasA (S. elongatus His kinase) (natural protein, UniProt Q06904 1-387, looked up)
chain: MGESLSPQALAQPLLLQLFVDTRPLSQHIVQRVKNILAAVEATVPISLQVINVADQPQLVEYYRLVVTPALVKIGPGSRQVLSGIDLTDQLANQLPQWLVQQEAFFADREPPEVNIPFTELGQPETPALQQADAFFQLQQQYADLSERTKFLEQVIALVAHDLRNPLTAALLAVDTIQIRSQSFSVATAKEMQGLCSLFDQARSQLREIERMIAEILEATRHSGESLRINPREVVFEPLLQQVLEQLHERWRSKQQQLITDVPGDLPTLYADPDRLRQVLVNLLDNAIKYTPPGGTITIAALHRTSQKVQISISDTGSGIPRDQLSVIFKNLVRLSRDSSQEGYGIGLSVCQRIVQAHFGRIWVASELGQGSTFHFTMPVYRYTMPC
notes: SasA, adaptive-response sensory His kinase, Synechococcus elongatus; N-terminal sensory domain is residues 1-97; its expression and purification are not described; also called full-length SasA; wt SasA
B6: KaiB (S. elongatus) (natural protein, UniProt Q79PF5 1-102, looked up)
chain: MSPRKTYILKLYVAGNTPNSVRALKTLKNILEVEFQGVYALKVIDVLKNPQLAEEDKILATPTLAKVLPLPVRRIIGDLSDREKVLIGLDLLYGELQDSDDF
notes: KaiB, Synechococcus elongatus; Tetramer free in solution; The crystal model used for SAXS (PDB 2QKE) is KaiB of another species (T. elongatus); also called KaiB tetramer; wt KaiB; source: E. coli BL21, GST fusion, purified

Data set [1] addresses T1, KaiBC complex (KaiB with wild type KaiC) (S. elongatus, UniProt Q79PF5 1-102; Q79PF4 1-519).
T1 construct: KaiB, Synechococcus elongatus, as m2; wild type KaiC, Synechococcus elongatus, as m3; KaiC phosphorylation state varies in the cycling reaction; also called KaiB-KaiC; source: formed in the in vitro cycling reaction from purified proteins; copies: + 6
T1 sequence (looked up) 1: B6 chain
T1 sequence (looked up) 2: B2 chain
Kind of data set: negative-stain EM; Kai complexes of the in vitro cycling reaction with 1x or 4x KaiA; reconstruction of class IV particles at ~30 Å. The conditions noted are these: both partners purified.

Data set [2] concerns the molecule itself. Kind of data set: SAXS; individual proteins in solution, 0.5-2.0 mg/mL, 10 or 20°C; ab initio envelopes (DAMMIN, GASBOR) compared with crystal structures.
The target in data set [3] is B3. Description: SAXS; binary complexes in solution, conditions set by native PAGE, 0.5-2.0 mg/mL, 10 or 20°C; ab initio envelopes without symmetry. The conditions noted are these: both partners purified.
Data set [4] concerns the molecule itself. Kind of data set: negative-stain EM; Kai complexes of the in vitro cycling reaction with 1x or 4x KaiA; reconstruction of class IV particles at ~30 Å.
Data set [5] deals with the molecule itself. Description: negative-stain EM; SasA:KaiC-aa complex, uranyl formate 0.75%, class averages and 3D reconstruction (C1) at 23.5 Å.
Data set [6] deals with the molecule itself. Kind of data set: crystal structure; KaiC-ee with ATPγS, 3.0 Å, molecular replacement with PDB 3DVL.
Data set [7] addresses B3. Kind of data set: negative-stain EM; SasA:KaiC-aa complex, uranyl formate 0.75%, class averages and 3D reconstruction (C1) at 23.5 Å. The conditions noted are these: both partners purified.
For data set [8], the target named is B4. Kind of data set: SAXS; binary complexes in solution, conditions set by native PAGE, 0.5-2.0 mg/mL, 10 or 20°C; ab initio envelopes without symmetry. The conditions noted are these: both partners purified.
Data set [9] has as its target B2. Kind of data set: negative-stain EM; Kai complexes of the in vitro cycling reaction with 1x or 4x KaiA; reconstruction of class IV particles at ~30 Å. The conditions noted are these: both partners purified.

For B1, in data set [1], the binding result is reported as “binds”. For the same molecule, the stoichiometry N (commonly a count of units in the complex or per binding partner) was 2 in data set [2] and 1 KaiA dimer per KaiC hexamer in [3].

As for B2, the “stoichiometry N” value in data set [4] stood at 6.

Consider B3, for which, in data set [5], the “stoichiometry N” value worked out at 6.

In the case of B4, the “stoichiometry N” value in [6] is 6.

Take B5: the “stoichiometry N” value in data set [7] was 2 binding sites per KaiC hexamer; in [8] it was 2 SasA dimers per KaiC hexamer.

B6: the binding result in data set [9] is “binds”. Moreover, the “stoichiometry N” value in data set [2] is 4; in data set [8], 2 KaiB dimers per KaiC hexamer.

The values above are taken from publication PMC3161067, “Combined SAXS/EM Based Models of the S. elongatus Post-Translational Circadian Oscillator and its Interactions with the Output His-Kinase SasA” (PLoS ONE, 2011).
